# Assay results taken from the supplement of paper PMC9170038.
# Tested on: MS2 coat protein
# Assay: apparent KD of MS2 coat protein; designed switch direction (-1 OFF switch, 1 ON switch): 1; higher = weaker reporter binding
# Outline: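 The reported apparent KD is a per-design median over clusters, from curve fits of normalised cluster fluorescence. Protein titrations used SNAP-549-labelled MS2 coat protein, doubled from 0.7 or 1.5 nM to 3 µM, in Tris-HCl pH 7.5 buffer with KCl, MgCl2, BSA, DTT, tRNA and Tween-20, with no input, 200 uM small-molecule ligand, or an oligonucleotide input. The RNA switches were transcribed on Illumina chips by stalled E. coli RNA polymerase.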
# [1] = Eterna round: R95, input ligand: FMN 200 uM
# [2] = Eterna round: R95, input ligand: microRNA oligo, concentration not stated
# [3] = Eterna round: R95, input ligand: none
# [4] = input ligand: microRNA oligo, concentration not stated
Sequence,apparent KD of MS2 coat protein [1],apparent KD of MS2 coat protein [2],apparent KD of MS2 coat protein [3],apparent KD of MS2 coat protein (input ligand: FMN 200 uM),apparent KD of MS2 coat protein [4],apparent KD of MS2 coat protein (input ligand: none)
UGGAUCUAGGCUUGCCUGGGUCCAUGCUGACAUGAGGAUCACCCAUGUGCAUCCUACAAGCUUUUUGCUUGUCAGUU (puzzle: Sensor for hsa-mir-208a),232 nM,166 nM,135 nM,–,–,–
AGUCCAGCCAGAGCUGGACAAAAGCAUGUACAUGAGGAUCACCCAUGUCAUGUACAAGCUUUUUGCUCGUCUUAAUA [Mat - hsa-mir-208a - Mod of JL - D37] (puzzle: Sensor for hsa-mir-208a),632 nM,15.4 nM,621 nM,–,–,–
"UGGUACAUGGGAGGAUAUCUCGUGGAGACAUGAGGAUCACCCAUGUAGAUGGCCGGUAACCGGUGAGAGAAGGCCCAUGUACCU [JL SSNG1 3.69] (Eterna round: R96, puzzle: Same State NG 2)",–,–,–,71.6 nM,42.2 nM,141 nM
AGGAAGGAGACUGAGGAUAUCGUAAGGAGGACAUGAGGAUCACCCAUGUGUAUAGGAUUGGAGGACGAGAAGGCAGAGGAGUGGG [JR_SS2_Sub048] (puzzle: Same State 2),29.7 nM,19.7 nM,26.5 nM,–,–,–
"UAGGAUCAACGAGGAUAUAAUAGGUUCUAUUCGUGAUAUUGCGUACAUGAGGAUCACCCAUGUUAUUAGAAGGCGUAUGGGUUU [JR_SSNG2_Sub085] (Eterna round: R96, puzzle: Same State NG 2)",–,–,–,78.7 nM,69.9 nM,92.8 nM
"AGCCUGAGUCGAGGAUAUUAUGGAUCAAUUAAUACAUGAGGAUCACCCAUGUAAUUAAUUUAACAUGAGAAGGCGACUCAGGCA [SSNG2/10-A1] (Eterna round: R96, puzzle: Same State NG 2)",–,–,–,7.72 nM,5.43 nM,8.66 nM
"UGUUCGUAGGAAGGAUAUCGAAAUAAAGGCGUCCACAUGAGGAUCACCCAUGUCGGCGGACCAAACGAGAAGGUCUACCCGGAC [Eternabot solution 12] (Eterna round: R96, puzzle: Same State NG 2)",–,–,–,9.42 nM,8.37 nM,11.6 nM
UUAAGCAACGGGCAGGAUAUGUAUUAAUAUACAUGAGGAUCACCCAUGUGCAGGUGUAACACCUGACAGAAGGGCCAAUCGCUGC [Soteed - 10] (puzzle: Same State 2),82.1 nM,509 nM,515 nM,–,–,–
"AGGCUGAGUCGAGGAUAUGAUCUUCAUAUAAUAACAUGAGGAUCACCCAUGUAUAAUUACAUGGAUCAGAAGGCGACUCAGCCA [SSNG2/13-B1] (Eterna round: R96, puzzle: Same State NG 2)",–,–,–,35.4 nM,414 nM,584 nM
"AAAAUUGAAUUACAUCUGCUCGUCAUACAACAUGAGGAUCACCCAUGUAACAUCAAACAACCAACCAAACACAAAUC [Ceeslage] (Eterna round: R96, puzzle: Sensor for hsa-mir-208a)",–,–,–,20.1 nM,17.5 nM,22.3 nM
UCUUGGUUUUUGCUCGUUUUUUGUGUUGAACAUGAGGAUCACCCAUGUAUUGUACGGUCCAAUUUAAUAAUAGUCCG [JMF 65] (puzzle: Sensor for hsa-mir-208a),26.6 nM,19.7 nM,32.4 nM,–,–,–
"UGGUACAUGGGAGGAUAUCAUGUAGAAACAUGAGGAUCACCCAUGUAGUUGGCAGCUUUGCUGAAUGAGAAGGCCCAUGUACCU [JL SSNG1 3.59] (Eterna round: R96, puzzle: Same State NG 2)",–,–,–,20.6 nM,19.5 nM,26.7 nM
"UGGAUCUAGGCUUGCCUGGGUCCAUGCUGACAUGAGGAUCACCCAUGUGCAUCCUACAAGCUUUUUGCUUGUCAGUU (Eterna round: R96, puzzle: Sensor for hsa-mir-208a)",–,–,–,575 nM,330 nM,289 nM
"UAAAAGAAGUUAGGAUAUGGUGAAGUACUGUGGCCAGAAGGGACGACUAACCGAGAAAGACAUGAGGAUCACCCAUGUCCACAG [Eternabot solution 20] (Eterna round: R96, puzzle: Same State NG 1)",–,–,–,86.5 nM,57 nM,74.5 nM
